Measurements reported in patent US20070224205A1.

Molecular target: Toll-like Receptor 5 (UniProt O60602)
Test: cell-based or functional assay

B1: ngSTF2.HA1-1His(PR8) (protein)
chain: AQVINTNSLSLLTQNNLQKSQSALGTAIERLSSGLRINSAKDDAAGQAIANRFTANIKGLTQASRNANDGISIAQTTEGALNEINNNLQRVRELAVQSAQSTNSQSDLDSIQAEITQRLNEIDRVSGQTQFNGVKVLAQDNTLTIQVGANDGETIDIDLKQINSQTLGLDSLNVQKAYDVKDTAVTTKAYANQGTTLDVSGLDDAAIKAATGGTQGTASVTGGAVKFDADNNKYFVTIGGFTGADAAKNGDYEVNVATDGTVTLAAGATKTTMPAGATTKTEVQELKDTPAVVSADAKNALIAGGVDATDANGAELVKMSYTDKNGKTIEGGYALKAGDKYYAADYDEATGAIKAKTTSYTAADGTTKTAANQLGGVDGKTEVVTIDGKTYQASKAAGHDFKAQPELAEAAAKTTENPLQKIDAALAQVDALRSDLGAVQNRFNSAITNLGNTVNQLSEARSRIEDSDYATEVSQMSRAQILQQAGTSVLAQANQVPQNVLSLLASGSGSGSSHNGKLCRLKGIAPLQLGKCNIAGWLLGNPECDPLLPVRSWSYIVETPNSENGICYPGDFIDYEELREQLSSVSSFERFEIFPKESSWPNHNTNGVTAACSHEGKSSFYRNLLWLTEKEGSYPKLKNSYVNKKGKEVLVLWGIHHPPNSKEQQNLYQNENAYVSVVTSNYNRRFTPEIAERPKVRDQAGRMNYYWTLLKPGDTIIFEANGNLIAPMYAFALSRGFGSGIITSQASMHECNTKCQTPLGAIQSSLPYQNIHPVTIGECPKYVRHHHHHH
TLR activity (EC50, ng/ml); IL-8 secretion by HEK293 cells: 30 ng/mL
